This assay addresses NKp30 (species and construct not stated) (UniProt O14931). Description: ELISA. The settings on record: ligand.

This passage reports Kd results from patent publication US20230357395A1.

Sequence of B7-H6 (Q68D85 25-262): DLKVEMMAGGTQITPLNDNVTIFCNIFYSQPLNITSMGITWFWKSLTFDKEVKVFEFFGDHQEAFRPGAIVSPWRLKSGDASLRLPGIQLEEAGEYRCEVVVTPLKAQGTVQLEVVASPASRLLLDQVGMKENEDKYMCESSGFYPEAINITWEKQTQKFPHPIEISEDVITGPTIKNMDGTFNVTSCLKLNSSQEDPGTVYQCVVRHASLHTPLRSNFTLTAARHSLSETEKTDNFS
Sequence of NKp30 (species and construct not stated) (O14931 19-135): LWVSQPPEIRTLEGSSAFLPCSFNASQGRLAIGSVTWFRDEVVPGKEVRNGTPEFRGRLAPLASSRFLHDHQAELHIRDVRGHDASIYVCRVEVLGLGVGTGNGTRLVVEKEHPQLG

In turn, B7-H6 (from UniProt Q68D85 25-262) registered a dissociation constant (Kd) of 6.56 nM.
